The target in this assay is human PD-1 (human) (UniProt Q15116).

The record followed here is US20250163127A1.

human PD-1 (human), sequence (Q15116 25-288): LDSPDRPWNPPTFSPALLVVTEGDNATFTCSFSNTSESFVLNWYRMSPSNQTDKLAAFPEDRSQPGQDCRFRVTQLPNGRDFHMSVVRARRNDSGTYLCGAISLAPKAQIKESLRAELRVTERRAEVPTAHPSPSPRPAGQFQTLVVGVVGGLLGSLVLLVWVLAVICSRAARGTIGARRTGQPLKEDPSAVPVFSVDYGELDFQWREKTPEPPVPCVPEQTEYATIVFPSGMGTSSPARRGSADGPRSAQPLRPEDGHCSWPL

B1: variant PD-L2 IgV I13V/H15Q/E44D/V89D Fc fusion (Fc fusion)
chain: LFTVTVPKELYIVEQGSNVTLECNFDTGSHVNLGAITASLQKVDNDTSPHRERATLLEEQLPLGKASFHIPQVQVRDEGQYQCIIIYGDAWDYKYLTLKVKA
Turning to B1, the IFN gamma levels pg/mL (MLR) turned out to be 1380 pg/mL.

B2: variant PD-L2 IgV H15Q/V31M/S67L/Q82R/V89D Fc fusion (Fc fusion)
chain: LFTVTVPKELYIIEQGSNVTLECNFDTGSHMNLGAITASLQKVENDTSPHRERATLLEEQLPLGKALFHIPQVQVRDEGQYRCIIIYGDAWDYKYLTLKVKA
In turn, B2 came in with an IFN gamma levels pg/mL (MLR) of 1210 pg/mL.

B3: variant PD-L2 IgV N32D/S67L/V89D Fc fusion (Fc fusion)
chain: LFTVTVPKELYIIEHGSNVTLECNFDTGSHVDLGAITASLQKVENDTSPHRERATLLEEQLPLGKALFHIPQVQVRDEGQYQCIIIYGDAWDYKYLTLKVKA
Consider B3, for which the IFN gamma levels pg/mL (MLR) amounted to 1190 pg/mL.

B4: variant PD-L2 IgV H15Q/N32D/S67L/V89D Fc fusion (Fc fusion)
chain: LFTVTVPKELYIIEQGSNVTLECNFDTGSHVDLGAITASLQKVENDTSPHRERATLLEEQLPLGKALFHIPQVQVRDEGQYQCIIIYGDAWDYKYLTLKVKA
B4 registered an IFN gamma levels pg/mL (MLR) of 1290 pg/mL.

B5: variant PD-L2 IgV I13V/Q72H/R76G/I86T Fc fusion (Fc fusion)
chain: LFTVTVPKELYIVEHGSNVTLECNFDTGSHVNLGAITASLQKVENDTSPHRERATLLEEQLPLGKASFHIPHVQVGDEGQYQCIITYGVAWDYKYLTLKVKA
Take B5: the IFN gamma levels pg/mL (MLR) stood at 1950 pg/mL.

B6: variant PD-L2 IgV I13V/H15Q/V31A/N45S/Q82R/V89D Fc fusion (Fc fusion)
chain: LFTVTVPKELYIVEQGSNVTLECNFDTGSHANLGAITASLQKVESDTSPHRERATLLEEQLPLGKASFHIPQVQVRDEGQYRCIIIYGDAWDYKYLTLKVKA
B6 showed an IFN gamma levels pg/mL (MLR) of 1720 pg/mL.

B7: variant PD-L2 IgV H15Q/T47A/S67L/Q82R/V89D Fc fusion (Fc fusion)
chain: LFTVTVPKELYIIEQGSNVTLECNFDTGSHVNLGAITASLQKVENDASPHRERATLLEEQLPLGKALFHIPQVQVRDEGQYRCIIIYGDAWDYKYLTLKVKA
Regarding B7, the IFN gamma levels pg/mL (MLR) is 1200 pg/mL.

B8: variant PD-L2 IgV I13V/H15Q/I36V/T47A/S67L/V89D Fc fusion (Fc fusion)
chain: LFTVTVPKELYIVEQGSNVTLECNFDTGSHVNLGAVTASLQKVENDASPHRERATLLEEQLPLGKALFHIPQVQVRDEGQYQCIIIYGDAWDYKYLTLKVKA
In the case of B8, the IFN gamma levels pg/mL (MLR) stood at 1360 pg/mL.

B9: variant PD-L2 IgV I13V/S39I/E44D/Q82R/V89D Fc fusion (Fc fusion)
chain: LFTVTVPKELYIVEHGSNVTLECNFDTGSHVNLGAITAILQKVDNDTSPHRERATLLEEQLPLGKASFHIPQVQVRDEGQYRCIIIYGDAWDYKYLTLKVKA
B9 yielded an IFN gamma levels pg/mL (MLR) of 936 pg/mL.

B10: variant PD-L2 IgV H15Q/Q72H/Q74R/R76G/I86T Fc fusion (Fc fusion)
chain: LFTVTVPKELYIIEQGSNVTLECNFDTGSHVNLGAITASLQKVENDTSPHRERATLLEEQLPLGKASFHIPHVRVGDEGQYQCIITYGVAWDYKYLTLKVKA
In turn, B10 returned an IFN gamma levels pg/mL (MLR) of 934 pg/mL.

B11: variant PD-L2 IgV I13V/H15Q/L33F/T47A/Q82R/V89D Fc fusion (Fc fusion)
chain: LFTVTVPKELYIVEQGSNVTLECNFDTGSHVNFGAITASLQKVENDASPHRERATLLEEQLPLGKASFHIPQVQVRDEGQYRCIIIYGDAWDYKYLTLKVKA
As for B11, the IFN gamma levels pg/mL (MLR) came out at 1470 pg/mL.

B12: variant PD-L2 IgV F2L/H15Q/D46E/T47A/Q72H/R76G/Q82R/V89D Fc fusion (Fc fusion)
chain: LLTVTVPKELYIIEQGSNVTLECNFDTGSHVNLGAITASLQKVENEASPHRERATLLEEQLPLGKASFHIPHVQVGDEGQYRCIIIYGDAWDYKYLTLKVKA
Regarding B12, the IFN gamma levels pg/mL (MLR) turned out to be 1170 pg/mL.

B13: variant PD-L2 IgV I13V/H15Q/T47A/H69L/R76G/V89D Fc fusion (Fc fusion)
chain: LFTVTVPKELYIVEQGSNVTLECNFDTGSHVNLGAITASLQKVENDASPHRERATLLEEQLPLGKASFLIPQVQVGDEGQYQCIIIYGDAWDYKYLTLKVKA
B13 showed an IFN gamma levels pg/mL (MLR) of 1080 pg/mL.

B14: variant PD-L2 IgV H15Q/E44D/R76G/I85F Fc fusion (Fc fusion)
chain: LFTVTVPKELYIIEQGSNVTLECNFDTGSHVNLGAITASLQKVDNDTSPHRERATLLEEQLPLGKASFHIPQVQVGDEGQYQCIFIYGVAWDYKYLTLKVKA
B14: the IFN gamma levels pg/mL (MLR) was 1390 pg/mL.

B15: variant PD-L2 IgV I13V/H15Q/E44V/T47A/Q82R/V89D Fc fusion (Fc fusion)
chain: LFTVTVPKELYIVEQGSNVTLECNFDTGSHVNLGAITASLQKVVNDASPHRERATLLEEQLPLGKASFHIPQVQVRDEGQYRCIIIYGDAWDYKYLTLKVKA
Molecule B15 returned an IFN gamma levels pg/mL (MLR) of 1270 pg/mL.

B16: variant PD-L2 IgV H15Q/S39I/E44D/Q72H/V75G/R76G/Q82R/V89D Fc fusion (Fc fusion)
chain: LFTVTVPKELYIIEQGSNVTLECNFDTGSHVNLGAITAILQKVDNDTSPHRERATLLEEQLPLGKASFHIPHVQGGDEGQYRCIIIYGDAWDYKYLTLKVKA
In turn, B16 had an IFN gamma levels pg/mL (MLR) of 941 pg/mL.

B17: variant PD-L2 IgV E44D/S67L/Q72H/Q82R/V89D Fc fusion (Fc fusion)
chain: LFTVTVPKELYIIEHGSNVTLECNFDTGSHVNLGAITASLQKVDNDTSPHRERATLLEEQLPLGKALFHIPHVQVRDEGQYRCIIIYGDAWDYKYLTLKVKA
In turn, B17 had an IFN gamma levels pg/mL (MLR) of 1280 pg/mL.

B18: variant PD-L2 IgV I13V/S67L/Q82R/V89D Fc fusion (Fc fusion)
chain: LFTVTVPKELYIVEHGSNVTLECNFDTGSHVNLGAITASLQKVENDTSPHRERATLLEEQLPLGKALFHIPQVQVRDEGQYRCIIIYGDAWDYKYLTLKVKA
B18 yielded an IFN gamma levels pg/mL (MLR) of 1370 pg/mL.

B19: variant PD-L2 IgV H15Q/T47A/Q72H/R76G Fc fusion (Fc fusion)
chain: LFTVTVPKELYIIEQGSNVTLECNFDTGSHVNLGAITASLQKVENDASPHRERATLLEEQLPLGKASFHIPHVQVGDEGQYQCIIIYGVAWDYKYLTLKVKA
B19 returned an IFN gamma levels pg/mL (MLR) of 1460 pg/mL.

B20: variant PD-L2 IgV I13V/H15Q/Q72H/R76G/I86T Fc fusion (Fc fusion)
chain: LFTVTVPKELYIVEQGSNVTLECNFDTGSHVNLGAITASLQKVENDTSPHRERATLLEEQLPLGKASFHIPHVQVGDEGQYQCIITYGVAWDYKYLTLKVKA
With B20, the IFN gamma levels pg/mL (MLR) amounted to 1220 pg/mL.

B21: variant PD-L2 IgV H15Q/S39I/S67L/V89D Fc fusion (Fc fusion)
chain: LFTVTVPKELYIIEQGSNVTLECNFDTGSHVNLGAITAILQKVENDTSPHRERATLLEEQLPLGKALFHIPQVQVRDEGQYQCIIIYGDAWDYKYLTLKVKA
Molecule B21 showed an IFN gamma levels pg/mL (MLR) of 1230 pg/mL.

B22: variant PD-L2 IgV H15Q/N18D/T47A/Q72H/V73A/R76G/I86T/V89D Fc fusion (Fc fusion)
chain: LFTVTVPKELYIIEQGSDVTLECNFDTGSHVNLGAITASLQKVENDASPHRERATLLEEQLPLGKASFHIPHAQVGDEGQYQCIITYGDAWDYKYLTLKVKA
B22 had an IFN gamma levels pg/mL (MLR) of 1070 pg/mL.

B23: variant PD-L2 IgV I13V/H15Q/R76G/D77N/Q82R/V89D Fc fusion (Fc fusion)
chain: LFTVTVPKELYIVEQGSNVTLECNFDTGSHVNLGAITASLQKVENDTSPHRERATLLEEQLPLGKASFHIPQVQVGNEGQYRCIIIYGDAWDYKYLTLKVKA
For the molecule B23, the IFN gamma levels pg/mL (MLR) stood at 1190 pg/mL.

B24: variant PD-L2 IgV I12V/I13V/H15Q/T47A/Q82R/V89D Fc fusion (Fc fusion)
chain: LFTVTVPKELYVVEQGSNVTLECNFDTGSHVNLGAITASLQKVENDASPHRERATLLEEQLPLGKASFHIPQVQVRDEGQYRCIIIYGDAWDYKYLTLKVKA
Regarding B24, the IFN gamma levels pg/mL (MLR) is 1530 pg/mL.

B25: variant PD-L2 IgV I13V/H15Q/Q82R/V89D Fc fusion (Fc fusion)
chain: LFTVTVPKELYIVEQGSNVTLECNFDTGSHVNLGAITASLQKVENDTSPHRERATLLEEQLPLGKASFHIPQVQVRDEGQYRCIIIYGDAWDYKYLTLKVKA
As for B25, the IFN gamma levels pg/mL (MLR) worked out at 1600 pg/mL.

B26: variant PD-L2 IgV I13V/H15Q/T47A/E58G/S67L/Q82R/V89D Fc fusion (Fc fusion)
chain: LFTVTVPKELYIVEQGSNVTLECNFDTGSHVNLGAITASLQKVENDASPHRERATLLGEQLPLGKALFHIPQVQVRDEGQYRCIIIYGDAWDYKYLTLKVKA
Take B26: the IFN gamma levels pg/mL (MLR) amounted to 836 pg/mL.

B27: variant PD-L2 IgV I13V/H15Q/Q82R Fc fusion (Fc fusion)
chain: LFTVTVPKELYIVEQGSNVTLECNFDTGSHVNLGAITASLQKVENDTSPHRERATLLEEQLPLGKASFHIPQVQVRDEGQYRCIIIYGVAWDYKYLTLKVKA
Consider B27, for which the IFN gamma levels pg/mL (MLR) was determined as 1430 pg/mL.

B28: variant PD-L2 IgV H15Q/L33H/S67L/R76G/Q82R/V89D Fc fusion (Fc fusion)
chain: LFTVTVPKELYIIEQGSNVTLECNFDTGSHVNHGAITASLQKVENDTSPHRERATLLEEQLPLGKALFHIPQVQVGDEGQYRCIIIYGDAWDYKYLTLKVKA
With B28, the IFN gamma levels pg/mL (MLR) was 1500 pg/mL.

B29: variant PD-L2 IgV I13V/H15Q/T47A/Q72H/R76G/I86T Fc fusion (Fc fusion)
chain: LFTVTVPKELYIVEQGSNVTLECNFDTGSHVNLGAITASLQKVENDASPHRERATLLEEQLPLGKASFHIPHVQVGDEGQYQCIITYGVAWDYKYLTLKVKA
The molecule B29 gave an IFN gamma levels pg/mL (MLR) of 1090 pg/mL.

B30: variant PD-L2 IgV H15Q/S67L/Q72H/R76G/V89D Fc fusion (Fc fusion)
chain: LFTVTVPKELYIIEQGSNVTLECNFDTGSHVNLGAITASLQKVENDTSPHRERATLLEEQLPLGKALFHIPHVQVGDEGQYQCIIIYGDAWDYKYLTLKVKA
Take B30: the IFN gamma levels pg/mL (MLR) turned out to be 1060 pg/mL.

B31: variant PD-L2 IgV I13V/H15Q/T47A/Q72H/R76G Fc fusion (Fc fusion)
chain: LFTVTVPKELYIVEQGSNVTLECNFDTGSHVNLGAITASLQKVENDASPHRERATLLEEQLPLGKASFHIPHVQVGDEGQYQCIIIYGVAWDYKYLTLKVKA
The molecule B31 showed an IFN gamma levels pg/mL (MLR) of 1470 pg/mL.

B32: variant PD-L2 IgV I13V/H15Q/T47A/Q82R Fc fusion (Fc fusion)
chain: LFTVTVPKELYIVEQGSNVTLECNFDTGSHVNLGAITASLQKVENDASPHRERATLLEEQLPLGKASFHIPQVQVRDEGQYRCIIIYGVAWDYKYLTLKVKA
Consider B32, for which the IFN gamma levels pg/mL (MLR) was determined as 1700 pg/mL.

B33: variant PD-L2 IgV I13V/H15Q/S39I/E44D/S67L Fc fusion (Fc fusion)
chain: LFTVTVPKELYIVEQGSNVTLECNFDTGSHVNLGAITAILQKVDNDTSPHRERATLLEEQLPLGKALFHIPQVQVRDEGQYQCIIIYGVAWDYKYLTLKVKA
B33 yielded an IFN gamma levels pg/mL (MLR) of 1260 pg/mL.

B34: variant PD-L2 IgV H15Q/L33P/T47A/S67L/P71S/V89D Fc fusion (Fc fusion)
chain: LFTVTVPKELYIIEQGSNVTLECNFDTGSHVNPGAITASLQKVENDASPHRERATLLEEQLPLGKALFHISQVQVRDEGQYQCIIIYGDAWDYKYLTLKVKA
On to B34, for which the IFN gamma levels pg/mL (MLR) was 1290 pg/mL.

B35: variant PD-L2 IgV I13V/H15Q/V89D Fc fusion (Fc fusion)
chain: LFTVTVPKELYIVEQGSNVTLECNFDTGSHVNLGAITASLQKVENDTSPHRERATLLEEQLPLGKASFHIPQVQVRDEGQYQCIIIYGDAWDYKYLTLKVKA
On to B35, for which the IFN gamma levels pg/mL (MLR) was 1120 pg/mL.
